Laboratory results: article PMC4176340, “Structure and function of TatD exonuclease in DNA repair”

Target: T1, TatD (Escherichia coli K12, UniProt P27859 1-260)
T1 sequence: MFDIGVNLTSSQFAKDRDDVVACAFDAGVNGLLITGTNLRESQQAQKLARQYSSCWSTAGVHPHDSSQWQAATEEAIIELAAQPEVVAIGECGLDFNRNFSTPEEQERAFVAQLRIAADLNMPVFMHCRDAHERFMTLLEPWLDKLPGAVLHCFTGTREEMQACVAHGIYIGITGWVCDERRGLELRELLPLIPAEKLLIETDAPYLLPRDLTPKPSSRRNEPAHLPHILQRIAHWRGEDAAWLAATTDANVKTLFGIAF
Test: X-ray crystallography 2.9 A; no metal ion identified; only trinucleotide GCT seen, weak density, occupancy 0.7, inactive conformation, likely cleaved product; Co-crystals: TatD 7-8 mg/ml in 10 mM MOPS, 250 mM NaCl, DNA at 1:1.2 (TatD:DNA); reservoir 4% Tacsmate pH 4, 12% PEG 3350; temperature not stated. Nuclease assays (turnover only) not listed
Conditions: protein: recombinant; tags: C-terminal His-tag (pET22b); single strand; only 5'-GCT-3' modelled (digestion product or ordered 3' end)

## GCTTAGCT (ssDNA) [8-nt ssDNA used for co-crystallization]
  binding result: binds
